In experiment [1] the target is F protein (RSV F glycoprotein immobilised on the BIAcore sensor chip) (respiratory syncytial virus (RSV), UniProt P03420 26-524). Description: BIAcore, immobilised F protein. For orientation: SPR reads the build-up and loss of mass on a sensor chip optically.
Experiment [2] has as its target T1, F protein of wild type RSV A/Long (respiratory syncytial virus, strain …, UniProt P12568 26-574). The experiment in a line: cell-based or functional assay.
The target in experiment [3] is T1, F protein of wild type RSV A/Long. The experiment in a line: cell-based or functional assay. This is another data set of the same source.
In another experiment the target is Bac-F (UniProt P03420 26-524). Description: BIAcore, Mab vs Bac-F, 1:1.
Bac-F, sequence (P03420 26-524): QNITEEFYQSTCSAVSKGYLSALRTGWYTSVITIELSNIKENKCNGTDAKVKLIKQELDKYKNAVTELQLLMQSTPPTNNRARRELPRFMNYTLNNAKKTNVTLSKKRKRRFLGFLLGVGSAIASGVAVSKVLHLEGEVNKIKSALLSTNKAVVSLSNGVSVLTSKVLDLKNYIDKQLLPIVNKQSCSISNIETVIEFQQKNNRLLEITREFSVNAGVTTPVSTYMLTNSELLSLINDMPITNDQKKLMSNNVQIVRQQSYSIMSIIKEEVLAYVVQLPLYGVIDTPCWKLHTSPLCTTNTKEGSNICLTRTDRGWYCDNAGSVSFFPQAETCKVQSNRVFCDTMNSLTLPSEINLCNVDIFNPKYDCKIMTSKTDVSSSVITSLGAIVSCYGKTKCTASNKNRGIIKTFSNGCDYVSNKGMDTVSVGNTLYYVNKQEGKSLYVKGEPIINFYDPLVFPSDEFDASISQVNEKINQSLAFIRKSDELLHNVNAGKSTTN

Residue numbers refer to the chain shown, from its start. Where “and” joins values, the source holds several entries; their conditions need not be identical. Equal entries are not always repeated.

F protein (RSV F glycoprotein immobilised on the BIAcore sensor chip), sequence (P03420 26-524): as above
T1 sequence (P12568 26-574): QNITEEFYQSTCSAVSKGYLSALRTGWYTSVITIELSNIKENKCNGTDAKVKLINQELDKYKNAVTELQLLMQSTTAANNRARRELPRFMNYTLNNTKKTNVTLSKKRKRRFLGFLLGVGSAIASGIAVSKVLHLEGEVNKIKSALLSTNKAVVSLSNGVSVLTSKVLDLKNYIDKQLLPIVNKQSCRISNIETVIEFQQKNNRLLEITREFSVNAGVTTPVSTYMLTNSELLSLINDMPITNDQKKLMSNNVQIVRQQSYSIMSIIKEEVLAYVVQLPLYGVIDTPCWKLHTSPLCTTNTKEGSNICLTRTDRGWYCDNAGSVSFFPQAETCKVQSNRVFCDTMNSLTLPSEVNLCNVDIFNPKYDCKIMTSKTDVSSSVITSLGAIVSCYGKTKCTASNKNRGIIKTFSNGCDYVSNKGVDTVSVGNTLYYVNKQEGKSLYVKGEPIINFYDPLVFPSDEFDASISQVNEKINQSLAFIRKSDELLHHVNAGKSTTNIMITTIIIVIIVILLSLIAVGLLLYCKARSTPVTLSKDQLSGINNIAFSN

B1: 1X-493L1FR (Fab) (Fab, V domains shown)
VH: QVTLRESGPALVKPTQTLTLTCTFSGFSLSTSGMSVGWIRQPPGKALEWLADIWWDDKKDYNPSLKSRLTISKDTSKNQVVLKVTNMDPADTATYYCARSMITNWYFDVWGAGTTVTVSS
VL: DIQMTQSPSTLSASVGDRVTITCSASSSVGYMHWYQQKPGKAPKLLIYDTSKLASGVPSRFSGSGSGTEFTLTISSLQPDDFATYYCFQGSGYPFTFGGGTKLEIK
As to B1, in experiment [1], the koff is 0.00065 s⁻¹ and the kon was determined as 185000 M⁻¹ s⁻¹.

B2: A13c4 (Fab) (Fab, V domains shown)
VH: B1 VH with S32A, D57G, D60S, S67D, S100D, T103F, W105F, A112Q
VL: B1 VL with A25L, S28R, S51M, K52Y, L53Q, A54S, L103V
With B2, the “EC50, RSV (Long) microneutralization” value in experiment [2] turned out to be 0.52 nM. In addition, in experiment [3], the “Fold Difference (Control IC50)” value is 21 fold; the “Fold Difference (Curve IC50)” value came to 17 fold; the “Mean IC50 (Control), RSV microneutralization” value (from here on “Mean IC50 (Control)”) turned out to be 0.0258 µg/mL; the “Mean IC50 (Curve), RSV microneutralization” value (“Mean IC50 (Curve)” below) was determined as 0.0264 µg/mL. In experiment [1], the koff was 0.00028 s⁻¹; the kon was 781000 M⁻¹ s⁻¹ and 735000 M⁻¹ s⁻¹.

B3: A13a11 (Fab) (Fab, V domains shown)
VH: B1 VH with S32A, D60H, S67D, S100D, T103F
VL: B1 VL with A25P, S28R, S51Y, K52R, L53H, A54S
In experiment [1], B3 registered a koff of 0.00025 s⁻¹ and a kon of 735000 M⁻¹ s⁻¹.

B4: A1e9 (monoclonal antibody) (antibody, V domains shown)
VH: B1 VH with S32A, D57G, D60H, S67D, S100D, T103F, A112Q
VL: B1 VL with A25L, S28R, S51F, A54S, L103V
As for B4, in the experiment with Bac-F, the Kd was 0.33 nM, the koff turned out to be 0.000143 s⁻¹, the kon amounted to 433000 M⁻¹ s⁻¹ and the “number in parentheses after KD (fold vs SYNAGIS)” value (“number … (fold vs SYNAGIS)” for short) is 12 fold.

B5: A12a6 (Fab) (Fab, V domains shown)
VH: B1 VH with S32A, D57G, S67D, S100D, T103F, W105F, A112Q
VL: B1 VL with S28R, S51F, A54S, L103V
B5: the “EC50, RSV (Long) microneutralization” value in experiment [2] worked out at 0.62 nM. In experiment [3], the “Fold Difference (Control IC50)” value came out at 17 fold; the “Fold Difference (Curve IC50)” value came out at 16 fold; the “Mean IC50 (Control)” value is 0.031 µg/mL; the “Mean IC50 (Curve)” value amounted to 0.0287 µg/mL. In experiment [1], this molecule displayed a koff of 0.00023 s⁻¹ and a kon of 743000 M⁻¹ s⁻¹.

B6: P12f2 (Fab) (Fab, V domains shown)
VH: B1 VH with S32P, D60H, S67D, S100D, T103F, W105F
VL: B1 VL with A25L, S28R, S51F, K52Y, A54S, L103V
notes: also called Pf12; P1212
On to B6, for which the “EC50, RSV (Long) microneutralization” value in experiment [2] was 0.65 nM. In addition, in experiment [3], the “Fold Difference (Control IC50)” value amounted to 16 fold; the “Fold Difference (Curve IC50)” value was 11 fold; the “Mean IC50 (Control)” value is 0.0326 µg/mL; the “Mean IC50 (Curve)” value came out at 0.0407 µg/mL. Further, in experiment [1], the off-rate constant (koff) is 0.000282 s⁻¹ and the kon was found to be 663000 M⁻¹ s⁻¹.

B7: P12f4 (Fab) (Fab, V domains shown)
VH: B1 VH with S32P, D57G, D60H, S67D, S100D, T103F, W105F, A112Q
VL: B1 VL with A25L, S28R, S51R, K52G, A54P, L103V
For B7, the “EC50, RSV (Long) microneutralization” value in experiment [2] turned out to be 0.7 nM. For the same molecule, in experiment [3], the “Fold Difference (Control IC50)” value is 15 fold; the “Fold Difference (Curve IC50)” value is 10 fold; the “Mean IC50 (Control)” value is 0.0351 µg/mL; the “Mean IC50 (Curve)” value is 0.0464 µg/mL. Further, in experiment [1], the koff amounted to 0.000299 s⁻¹ and the kon came to 527000 M⁻¹ s⁻¹.

B8: P11d4 (Fab) (Fab, V domains shown)
VH: B1 VH with S32P, D57G, D60H, S67D, S100D, T103F, A112Q
VL: B1 VL with A25P, S28R, S51M, K52R, L103V
For the molecule B8, the “EC50, RSV (Long) microneutralization” value in experiment [2] was more than 20 nM. In addition, in experiment [3], the “Mean IC50 (Control)” value was more than 1 µg/mL and the “Mean IC50 (Curve)” value was more than 1 µg/mL. In experiment [1], the koff came to 0.000717 s⁻¹; the kon is 570000 M⁻¹ s⁻¹ and 572000 M⁻¹ s⁻¹.

B9: A13c4 (monoclonal antibody) (antibody, V domains shown)
VH: B1 VH with S32A, D57G, D60S, S67D, S100D, T103F, W105F, A112Q
VL: B1 VL with A25L, S28R, S51M, K52Y, L53Q, A54S, L103V
On to B9, for which, in experiment [3], the “Fold Difference (Control IC50)” value was determined as 14 fold; the “Fold Difference (Curve IC50)” value came out at 12 fold; the “Mean IC50 (Control)” value stood at 0.0375 µg/mL; the “Mean IC50 (Curve)” value came to 0.0376 µg/mL. In the experiment with Bac-F, the affinity, expressed as Kd, was 0.13 nM; the dissociation rate constant (koff) turned out to be 3.96e-05 s⁻¹; the association rate constant (kon) was determined as 300000 M⁻¹ s⁻¹; the “number … (fold vs SYNAGIS)” value stood at 30 fold.

B10: Y10H6 (Fab) (Fab, V domains shown)
VH: B1 VH with S32A, S100D, T103F
VL: B1 VL with S51R, K52Y, A54S
For the molecule B10, in experiment [1], the off-rate constant (koff) stood at 0.000462 s⁻¹ and the kon worked out at 757000 M⁻¹ s⁻¹.

B11: DG (Fab) (Fab, V domains shown)
VH: B1 VH with S32A, S100D, W105F
VL: B1 VL with S51F
As for B11, in experiment [1], the koff was 0.000167 s⁻¹ and 0.000444 s⁻¹.

B12: AFFF (monoclonal antibody) (antibody, V domains shown)
VH: B1 VH with S32A, W105F
VL: B1 VL with S51F, G90F
Consider B12, for which, in experiment [1], the koff is 0.000274 s⁻¹ and 0.000266 s⁻¹ and 0.000206 s⁻¹; the kon was 108000 M⁻¹ s⁻¹ and 96000 M⁻¹ s⁻¹ and 124000 M⁻¹ s⁻¹.

B13: P11d4 (monoclonal antibody) (antibody, V domains shown)
VH: B1 VH with S32P, D57G, D60H, S67D, S100D, T103F, A112Q
VL: B1 VL with A25P, S28R, S51M, K52R, L103V
For B13, in experiment [3], the “Fold Difference (Control IC50)” value amounted to 19 fold; the “Fold Difference (Curve IC50)” value is 21 fold; the “Mean IC50 (Control)” value was determined as 0.0289 µg/mL; the “Mean IC50 (Curve)” value was determined as 0.0217 µg/mL. For the same molecule, in the experiment with Bac-F, the Kd amounted to 0.62 nM, the koff was 0.000289 s⁻¹, the on-rate (kon) amounted to 466000 M⁻¹ s⁻¹ and the “number … (fold vs SYNAGIS)” value was 6 fold.

B14: 6H8 (Fab) (Fab, V domains shown)
VH: B1 VH with S32A, S100D, W105F
VL: B1 VL with S51F, A54T
Turning to B14, in experiment [1], the dissociation rate constant (koff) is 0.000178 s⁻¹ and 0.000473 s⁻¹; the kon was 314000 M⁻¹ s⁻¹ and 444000 M⁻¹ s⁻¹.

B15: A8c7 (monoclonal antibody) (antibody, V domains shown)
VH: B1 VH with S32A, D60S, S67D, S100D, T103F, A112Q
VL: B1 VL with A25P, S28R, S51R, K52Y, L53Q, A54S
Consider B15, for which, in the experiment with Bac-F, the Kd turned out to be 0.21 nM, the koff was 8.75e-05 s⁻¹, the kon is 417000 M⁻¹ s⁻¹ and the “number … (fold vs SYNAGIS)” value was found to be 19 fold.

B16: P12f4 (monoclonal antibody) (antibody, V domains shown)
VH: B1 VH with S32P, D57G, D60H, S67D, S100D, T103F, W105F, A112Q
VL: B1 VL with A25L, S28R, S51R, K52G, A54P, L103V
On to B16, for which, in experiment [3], the “Fold Difference (Control IC50)” value stood at 23 fold; the “Fold Difference (Curve IC50)” value was 19 fold; the “Mean IC50 (Control)” value was 0.0235 µg/mL; the “Mean IC50 (Curve)” value was 0.0242 µg/mL. Further, in the experiment with Bac-F, the Kd is 0.11 nM, the koff amounted to 5.55e-05 s⁻¹, the kon turned out to be 495000 M⁻¹ s⁻¹ and the “number … (fold vs SYNAGIS)” value was found to be 35 fold.

B17: M3H9 (Fab) (Fab, V domains shown)
VH: B1 VH with S32A, S100D, T103F
VL: B1 VL with S51Y, L53Q, A54T
In experiment [1], B17 yielded a koff of 0.000338 s⁻¹ and a kon of 605000 M⁻¹ s⁻¹.

B18: L1-7E5 (Fab) (Fab, V domains shown)
VH: B1 VH with S32A, S100D, W105F
VL: B1 VL with S28R, S51F
B18: the koff in experiment [1] was 0.000192 s⁻¹ and 0.000331 s⁻¹ and 0.000229 s⁻¹.

B19: P12f2 (monoclonal antibody) (antibody, V domains shown)
VH: B1 VH with S32P, D60H, S67D, S100D, T103F, W105F
VL: B1 VL with A25L, S28R, S51F, K52Y, A54S, L103V
notes: also called Pf12; P1212
As to B19, in experiment [3], the “Fold Difference (Control IC50)” value worked out at 24 fold; the “Fold Difference (Curve IC50)” value was determined as 20 fold; the “Mean IC50 (Control)” value was determined as 0.0223 µg/mL; the “Mean IC50 (Curve)” value is 0.0231 µg/mL. Moreover, in the experiment with Bac-F, binding was characterised by a dissociation constant (Kd) of 0.31 nM, the koff was determined as 0.000128 s⁻¹, the kon was determined as 407000 M⁻¹ s⁻¹ and the “number … (fold vs SYNAGIS)” value is 13 fold.

B20: A12a6 (monoclonal antibody) (antibody, V domains shown)
VH: B1 VH with S32A, D57G, S67D, S100D, T103F, W105F, A112Q
VL: B1 VL with S28R, S51F, A54S, L103V
In the case of B20, in experiment [3], the “Fold Difference (Control IC50)” value was determined as 15 fold; the “Fold Difference (Curve IC50)” value was found to be 13 fold; the “Mean IC50 (Control)” value amounted to 0.0354 µg/mL; the “Mean IC50 (Curve)” value was 0.0357 µg/mL. In the experiment with Bac-F, binding was characterised by a dissociation constant (Kd) of 0.04 nM, the koff turned out to be 1.65e-05 s⁻¹, the kon was 460000 M⁻¹ s⁻¹ and the “number … (fold vs SYNAGIS)” value is 98 fold.

B21: H3-3F4 (Fab) (Fab, V domains shown)
VH: B1 VH with S32A, S100D, T103F
VL: B1 VL with S51F
notes: also called 113-3F4
B21: the koff in experiment [1] is 0.000445 s⁻¹ and 0.000402 s⁻¹.

What is called koff is a measure of how fast the partners let go of each other. A lower koff goes with slow dissociation. In general, kon refers to the rate constant with which the complex forms. High values mean faster complex formation, low ones slower complex formation. In general, Kd refers to the constant that tells how readily two partners part at equilibrium. Low values mean tighter binding, high ones weaker binding.

Values taken from patent US20020177126A1 (published 2002).
